Patent US8999894 (ALBERT EINSTEIN COLLEGE OF MEDICINE OF YESHIVA UNIVERSITY, dated 2015)

How the values were obtained:
[1] = target: T1, recombinant E. coli DNA gyrase (E. coli, UniProt P0AES4 2-875; P0AES6 2-804); assay: cell-based or functional assay
[2] = target: T1, recombinant E. coli DNA gyrase; assay: SPR (BIAcore 3000), MfpA amine-coupled to CM5 chip, E. coli DNA gyrase as analyte, 1:1 Langmuir fit

T1 sequence (P0AES4 2-875 limits assumed, one chain of several): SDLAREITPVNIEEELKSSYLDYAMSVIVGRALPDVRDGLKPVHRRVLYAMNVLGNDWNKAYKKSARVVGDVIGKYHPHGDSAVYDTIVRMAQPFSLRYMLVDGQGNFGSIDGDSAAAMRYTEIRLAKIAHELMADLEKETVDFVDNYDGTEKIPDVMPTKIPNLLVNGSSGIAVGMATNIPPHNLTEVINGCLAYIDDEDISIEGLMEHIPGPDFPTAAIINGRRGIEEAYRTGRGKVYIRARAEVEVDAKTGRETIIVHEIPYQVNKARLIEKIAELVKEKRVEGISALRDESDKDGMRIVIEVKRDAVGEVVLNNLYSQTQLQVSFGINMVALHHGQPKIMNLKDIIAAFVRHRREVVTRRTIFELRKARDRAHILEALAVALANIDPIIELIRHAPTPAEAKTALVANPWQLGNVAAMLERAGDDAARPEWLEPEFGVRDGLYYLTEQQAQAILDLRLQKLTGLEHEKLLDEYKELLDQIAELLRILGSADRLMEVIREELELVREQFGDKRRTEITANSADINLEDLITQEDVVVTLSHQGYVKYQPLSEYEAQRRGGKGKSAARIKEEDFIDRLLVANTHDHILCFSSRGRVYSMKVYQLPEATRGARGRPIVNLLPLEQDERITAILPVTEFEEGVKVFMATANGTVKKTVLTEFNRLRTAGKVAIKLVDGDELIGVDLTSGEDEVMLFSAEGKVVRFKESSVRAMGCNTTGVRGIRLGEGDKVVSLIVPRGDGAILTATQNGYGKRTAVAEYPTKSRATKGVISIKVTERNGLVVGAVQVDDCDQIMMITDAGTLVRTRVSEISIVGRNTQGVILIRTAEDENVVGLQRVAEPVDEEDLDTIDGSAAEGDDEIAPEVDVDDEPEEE

B1: Mycobacterium tuberculosis MfpA pentapeptide repeat protein (Rv3361c gene product) (other)
chain: QQWVDCEFTGRDFRDEDLSRLHTERAMFSECDFSGVNLAESQHRGSAFRNCTFERTTLWHSTFAQCSMLGSVFVACRLRPLTLDDVDFTLAVLGGNDLRGLNLTGCRLRETSLVDTDLRKCVLRGADLSGARTTGARLDDADLRGATVDPVLWRTASLVGARVDVDQAVAFAAAHGLCLA
notes: also called MtMfpA
inhibition of ATP-dependent DNA supercoiling by E. coli DNA gyrase, apparent IC50 [1]: ~1.2 µM
inhibition of ATP-independent relaxation by E. coli DNA gyrase, apparent IC50 [1]: ~1.2 µM
Kd [2]: 0.46 µM
koff [2]: ~0.0001 s⁻¹
